Results on nine molecules are retold here after PMC10397247.

Read-outs that look alike come from different tables or passages of the source.

Experiment in all cases: two-hybrid library CCmax;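 note: natural log of median RNA to DNA barcode read ratio; higher means stronger binding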
In one test the target is T1, 4H656-AA.
T1 chain: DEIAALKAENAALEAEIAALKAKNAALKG
The settings on record: mean of both orientations.

A further test deals with T2, 4H971-AA.
T2 chain: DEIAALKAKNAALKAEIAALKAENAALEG
As to conditions: mean of both orientations.

A further test deals with T3, 4H497-AA.
T3 chain: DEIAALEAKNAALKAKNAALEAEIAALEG

In the next test the target is T4, 4H675-AA.
T4 chain: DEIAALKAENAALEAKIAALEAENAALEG

The target of another test is T5, 4H428-AA.
T5 chain: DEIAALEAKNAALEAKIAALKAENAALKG

A further test has as its target T6, 4H478-AA.
T6 chain: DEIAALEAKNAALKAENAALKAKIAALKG

Another test concerns the target T7, 4H982-AA.
T7 chain: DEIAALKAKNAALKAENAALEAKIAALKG

In another test the target is T8, 4H697-AA.
T8 chain: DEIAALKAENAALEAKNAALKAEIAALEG

The target of another test is T9, 4H458-AA.
T9 chain: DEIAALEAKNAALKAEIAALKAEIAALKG
As to conditions: mean of both orientations.

The target in another test is T10, 4H485-AA.
T10 chain: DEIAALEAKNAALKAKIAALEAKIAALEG
The settings on record: mean of both orientations.

Another test has as its target T11, 4H570-AA.
T11 chain: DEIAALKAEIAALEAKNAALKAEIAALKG
As to conditions: mean of both orientations.

The target in another test is T12, 4H3753-AA.
T12 chain: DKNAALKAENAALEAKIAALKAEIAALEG
The settings on record: mean of both orientations.

A further test concerns the target T13, 4H629-AA.
T13 chain: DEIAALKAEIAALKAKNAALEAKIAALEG
The settings on record: mean of both orientations.

For the next test, the target named is T14, 4H536-AA.
T14 chain: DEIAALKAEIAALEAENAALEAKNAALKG
The settings on record: mean of both orientations.

The next test concerns the target T15, 4H930-AA.
T15 chain: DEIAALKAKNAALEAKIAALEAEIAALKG
The settings on record: mean of both orientations.

A further test has as its target T16, 4H710-AA.
T16 chain: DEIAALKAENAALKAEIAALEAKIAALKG
As to conditions: mean of both orientations.

The next test has as its target T17, 4H745-AA.
T17 chain: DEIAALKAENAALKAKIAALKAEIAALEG
The settings on record: mean of both orientations.

For the next test, the target named is T18, 4H909-AA.
T18 chain: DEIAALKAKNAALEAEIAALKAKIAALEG
The settings on record: mean of both orientations.

In the next test the target is T19, 4H797-AA.
T19 chain: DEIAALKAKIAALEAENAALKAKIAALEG
As to conditions: mean of both orientations.

In another test the target is T20, 4H891-AA.
T20 chain: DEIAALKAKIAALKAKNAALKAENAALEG
The settings on record: mean of both orientations.

Another test addresses T21, 4H384-AA.
T21 chain: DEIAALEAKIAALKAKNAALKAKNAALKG
The settings on record: mean of both orientations.

In another test the target is T22, 4H94-AA.
T22 chain: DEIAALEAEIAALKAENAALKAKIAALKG
As to conditions: mean of both orientations.

Another test deals with T23, 4H850-AA.
T23 chain: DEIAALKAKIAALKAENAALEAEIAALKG
The settings on record: mean of both orientations.

A further test concerns the target T24, 4H3718-AA.
T24 chain: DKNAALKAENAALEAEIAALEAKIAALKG
As to conditions: mean of both orientations.

Another test has as its target T25, 4H3865-AA.
T25 chain: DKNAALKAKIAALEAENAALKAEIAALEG
The settings on record: mean of both orientations.

A further test deals with T26, 4H3697-AA.
T26 chain: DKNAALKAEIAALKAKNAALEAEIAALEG

The target in a further test is T27, 4H48-AA.
T27 chain: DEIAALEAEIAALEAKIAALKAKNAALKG
As to conditions: mean of both orientations.

In another test the target is T28, 4H717-AA.
T28 chain: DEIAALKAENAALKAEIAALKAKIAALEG
As to conditions: mean of both orientations.

The target of another test is T29, 4H678-AA.
T29 chain: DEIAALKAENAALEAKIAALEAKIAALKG
As to conditions: mean of both orientations.

The target of the next test is T30, 4H993-AA.
T30 chain: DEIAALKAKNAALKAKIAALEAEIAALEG
As to conditions: mean of both orientations.

For another test, the target named is T31, 4H566-AA.
T31 chain: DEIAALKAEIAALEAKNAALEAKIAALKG
The settings on record: mean of both orientations.

A further test concerns the target T32, 4H3627-AA.
T32 chain: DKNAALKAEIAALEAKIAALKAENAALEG
The settings on record: mean of both orientations.

A further test concerns the target T33, 4H605-AA.
T33 chain: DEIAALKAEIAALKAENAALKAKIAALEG
The settings on record: mean of both orientations.

A further test concerns the target T34, 4H794-AA.
T34 chain: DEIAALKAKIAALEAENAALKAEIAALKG
The settings on record: mean of both orientations.

For the next test, the target named is T35, 4H3655-AA.
T35 chain: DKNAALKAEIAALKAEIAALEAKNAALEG
As to conditions: mean of both orientations.

In another test the target is T36, 4H454-AA.
T36 chain: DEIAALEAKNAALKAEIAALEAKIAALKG
The settings on record: mean of both orientations.

The target of a further test is T37, 4H3921-AA.
T37 chain: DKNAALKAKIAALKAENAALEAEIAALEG
As to conditions: mean of both orientations.

The target of a further test is T38, 4H780-AA.
T38 chain: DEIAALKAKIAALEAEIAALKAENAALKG
As to conditions: mean of both orientations.

The next test has as its target T39, 4H906-AA.
T39 chain: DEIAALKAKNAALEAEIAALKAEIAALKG
As to conditions: mean of both orientations.

Another test deals with T40, 4H429-AA.
T40 chain: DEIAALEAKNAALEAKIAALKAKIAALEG
The settings on record: mean of both orientations.

The next test deals with T41, 4H3606-AA.
T41 chain: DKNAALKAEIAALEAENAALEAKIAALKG
The settings on record: mean of both orientations.

The target of the next test is T42, 4H3844-AA.
T42 chain: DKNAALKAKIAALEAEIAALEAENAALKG
As to conditions: mean of both orientations.

The target of a further test is T43, 4H342-AA.
T43 chain: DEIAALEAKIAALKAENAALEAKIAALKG

The target in the next test is T44, 4H3427-AA.
T44 chain: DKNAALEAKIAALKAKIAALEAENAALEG
As to conditions: mean of both orientations.

In another test the target is T45, 4H881-AA.
T45 chain: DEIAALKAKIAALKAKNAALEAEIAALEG
As to conditions: mean of both orientations.

The target in another test is T46, 4H3410-AA.
T46 chain: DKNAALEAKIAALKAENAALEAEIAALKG

The target in the next test is T47, 4H3590-AA.
T47 chain: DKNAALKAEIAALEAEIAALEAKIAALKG
The settings on record: mean of both orientations.

A further test addresses T48, APC9806-AA.
T48 chain: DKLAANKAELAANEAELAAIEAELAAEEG

In a further test the target is T49, 4H3395-AA.
T49 chain: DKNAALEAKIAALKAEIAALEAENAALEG

For the molecule DEIAALEAKNAALKAKNAALEAEIAALEG [4H497-AA], the interaction score in the test with 4H656-AA is -1.34; with 4H971-AA, -2.19; with 4H497-AA it was -1.57; with 4H675-AA, -0.54.
Turning to DEIAALEAKNAALEAKIAALKAENAALKG [4H428-AA], the interaction score was 0.174 with 4H428-AA; -0.675 with 4H656-AA; -0.222 with 4H971-AA; -1.71 with 4H478-AA (mean of both orientations); -1.47 with 4H497-AA (mean of both orientations); 0.166 in the test with 4H675-AA (mean of both orientations).
Consider DEIAALEAKNAALKAENAALKAKIAALKG [4H478-AA], for which the interaction score was -0.144 in the test with 4H656-AA; -1.54 with 4H971-AA; 0.99 in the test with 4H478-AA; -0.909 with 4H497-AA (mean of both orientations); -1.76 with 4H675-AA.
With DEIAALKAENAALEAKNAALKAEIAALEG [4H697-AA], the interaction score in the test with 4H982-AA was 2.27; with 4H697-AA, -1.15.
As for DKNAALKAEIAALKAKNAALEAEIAALEG [4H3697-AA], the interaction score in the test with 4H982-AA (mean of both orientations) is -1.01; with 4H458-AA, -1.36; with 4H485-AA, -0.973; with 4H570-AA, 0.23; with 4H3753-AA, -1.79; with 4H629-AA, -0.654. The interaction score with 4H536-AA is 0.0406; in the test with 4H930-AA, -1.4; with 4H710-AA, -1.75; with 4H745-AA, -1.64; with 4H697-AA (mean of both orientations) it was -1.53; with 4H909-AA it was -1.21. The interaction score was -1.44 with 4H797-AA; -1.55 with 4H891-AA; -0.953 with 4H384-AA; 1.01 in the test with 4H94-AA; -0.0774 in the test with 4H850-AA; -0.817 with 4H3718-AA. Moreover, the interaction score with 4H3865-AA is -1.52; in the test with 4H3697-AA it was -0.761.
Regarding DEIAALEAKIAALKAENAALEAKIAALKG [4H342-AA], the interaction score in the test with 4H48-AA was -0.491; with 4H717-AA, -1.4; in the test with 4H678-AA, 0.227; with 4H993-AA it was 1.17; in the test with 4H566-AA, 2.31; in the test with 4H3627-AA it was 0.447. Besides, the interaction score is 1.41 in the test with 4H605-AA; 1.25 with 4H794-AA; -0.61 with 4H3655-AA; 2.21 with 4H454-AA; 0.975 with 4H3921-AA; -1.58 with 4H780-AA. Further, the interaction score was -1.52 in the test with 4H906-AA; -0.49 in the test with 4H429-AA; 1.55 in the test with 4H3606-AA; 0.569 with 4H3844-AA; 1.54 with 4H342-AA; -1.15 with 4H3427-AA. The molecule also showed an interaction score in the test with 4H881-AA of 2.49.
With DKNAALEAKIAALKAENAALEAEIAALKG [4H3410-AA], the interaction score with 4H458-AA is 1.79; with 4H485-AA, -0.0439; with 4H570-AA, 2.09; with 4H3753-AA, -1.39; with 4H629-AA, -1.53; with 4H3410-AA it was 0.0832. The interaction score with 4H536-AA is -1.39; with 4H930-AA, -1.36; with 4H710-AA it was -1.13; with 4H745-AA, -0.581; in the test with 4H3590-AA, -0.698; with 4H909-AA it was -1.45. For the same molecule, the interaction score in the test with 4H797-AA was -1.22; in the test with 4H891-AA, -1.42; with 4H94-AA it was 1.3; with 4H850-AA it was -0.83; in the test with 4H3865-AA it was 0.873; in the test with 4H3697-AA (mean of both orientations), -0.574.
Take DKLAANKAELAANEAELAAIEAELAAEEG [APC9806-AA]: in the test with APC9806-AA, the interaction score was -2.12.
With DKNAALEAKIAALKAEIAALEAENAALEG [4H3395-AA], the interaction score with 4H458-AA was -1.44; with 4H485-AA, -1.67; with 4H570-AA, -0.846; with 4H3753-AA it was -0.825; in the test with 4H629-AA, -1.64; in the test with 4H3410-AA (mean of both orientations), -1.06. Moreover, the interaction score in the test with 4H536-AA is -1.14; with 4H930-AA, -1.33; with 4H710-AA, -1.32; in the test with 4H745-AA, -1.46; with 4H3590-AA, 0.738; in the test with 4H909-AA it was -1.83. Moreover, the interaction score with 4H797-AA is -1.43; in the test with 4H3395-AA it was 0.0829; with 4H891-AA it was 0.496; with 4H94-AA, -0.52; in the test with 4H850-AA it was -1.34; in the test with 4H3865-AA, -1.79. For the same molecule, the interaction score with 4H3697-AA (mean of both orientations) was -1.79.
